How the values were obtained:
[1] = target: human hemoglobin (Sigma) (human) (UniProt P69905)
[2] = target: fibrinogen from human plasma (Sigma) (human) (UniProt P02671); assay: ELISA, fibrinogen titrated on immobilized K1; apparent Kd (FIG. 21)
[3] = target: fibrinogen from human plasma (Sigma) (human) (UniProt P02671); assay: ELISA, fibrinogen titrated on immobilized K3; apparent Kd (FIG. 21)
[4] = target: complex of recombinant human serum albumin and hemin (rHSA-heme) (human) (UniProt P02768); assay: ELISA, rHSA-heme against rHSA on immobilized K3 (FIG. 22)

Work on “K1 domain (Gly982-Gly1154) of lysine gingipain Kgp from Porphyromonas gingivalis W83, recombinant (from UniProt Q51817 982-1154)” yielded a Kd [1] of 360 nM and a Kd [2] of 1500 nM.
“K3 domain (Ala1427-Gly1602) of lysine gingipain Kgp from Porphyromonas gingivalis W83, recombinant, non-tagged (from UniProt Q51817 1427-1602)” showed a Kd [3] of 570 nM, a fold increase of binding affinity against rHSA without heme [4] of 9 fold and a Kd [1] of 154 nM.
